Results reported in paper PMC6003225 (Molecular Biology of the Cell, 2018).

Target: T1, Danio rerio CPAP G-box domain (DrCPAP_(G-box), amino acids 943–1121) (Danio rerio, UniProt E7FCY1 943-1121)
T1 sequence (looked up): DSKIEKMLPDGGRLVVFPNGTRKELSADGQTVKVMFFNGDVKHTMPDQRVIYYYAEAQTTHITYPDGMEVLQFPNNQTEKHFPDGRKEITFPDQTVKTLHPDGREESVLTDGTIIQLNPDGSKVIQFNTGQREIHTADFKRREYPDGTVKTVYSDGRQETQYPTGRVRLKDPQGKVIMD
Assay: ITC

B1: C. elegans SAS-5 fragment corresponding to amino acids 2–122 (SAS-5N) (domain or fragment, UniProt Q20010 2-122, looked up)
chain: NNYDDLPCSIYFKKPTVQEFVDQPRVFEDSEVPAFQEVLQLPQERTKPPVPSTQPIVAAVEVAKKKSCLSAPKPRKEPPSHPALRQKTVAFGKTVNVSQTVEGTSRNSKKVLASTMSAQNT
B1 gave a Kd of 34 ± 4 µM.
